The source of these data is the Human Domainome abundance scans (Beltran et al. 2025).

± gives the uncertainty stated by the source.

Sequences and labels used below:
B1: Proto-oncogene vav, residues 782 to 842; numbered along this chain, P15498 (parent)
chain: KYFGTAKARYDFCARDRSELSLKEGDIIKILNKKGQQGWWRGEIYGRVGWFPANYVEEDYS

The data set covers variants of B1. Briefly: abundance fitness (aPCA) (normalised: wild type 0, dead -1); higher = more abundant; growth selection in yeast, the domain comes from the species named. Particulars: Homo sapiens.
In the case of KYFGTAKARYDFCARDRSELSLKEGDIIKILNKKGQQGWWRGEIYGRVGWFPANYVKEDYS [E57K], the abundance fitness is -0.313 ± 0.12.

With KYFGTAKARYDFCARDRSELSLKEGDIIKILNKKGQQGWWRGEIYGRVGWFPANYVAEDYS [E57A], the abundance fitness is -0.052 ± 0.074.

Consider KYFGTAKARYDFCARDRSELSLKEGDIIKILNKKGQQGWWRGEIYGRVGWFPANYVLEDYS [E57L], for which the abundance fitness is -0.194 ± 0.065.

As for KYFGTAKARYDFCARDRSELSLKEGDIIKILNKKGQQGWWRGEIYGRVGWFPANYKEEDYS [V56K], the abundance fitness was -0.599 ± 0.18.

On to KYFGTAKARYDFCARDRSELSLKEGDIIKILNKKGQQGWWRGEIYGRVGWFPANYCEEDYS [V56C], for which the abundance fitness was -0.452 ± 0.13.

For the variant KYFGTAKARYDFCARDRSELSLKEGDIIKILNKKGQQGWWRGEIYGRVGWFPANYPEEDYS [V56P], the abundance fitness is -0.73 ± 0.18.

For the variant KYFGTAKARYDFCARDRSELSLKEGDIIKILNKKGQQGWWRGEIYGRVGWFPANYMEEDYS [V56M], the abundance fitness is -1.02 ± 0.3.

On to KYFGTAKARYDFCARDRSELSLKEGDIIKILNKKGQQGWWRGEIYGRVGWFPANYNEEDYS [V56N], for which the abundance fitness was -0.807 ± 0.33.

For KYFGTAKARYDFCARDRSELSLKEGDIIKILNKKGQQGWWRGEIYGRVGWFPANYSEEDYS [V56S], the abundance fitness is -0.919 ± 0.14.

As for KYFGTAKARYDFCARDRSELSLKEGDIIKILNKKGQQGWWRGEIYGRVGWFPANYHEEDYS [V56H], the abundance fitness is -0.753 ± 0.34.

On to KYFGTAKARYDFCARDRSELSLKEGDIIKILNKKGQQGWWRGEIYGRVGWFPANYAEEDYS [V56A], for which the abundance fitness was -0.191 ± 0.098.

Regarding KYFGTAKARYDFCARDRSELSLKEGDIIKILNKKGQQGWWRGEIYGRVGWFPANYIEEDYS [V56I], the abundance fitness was -0.554 ± 0.14.

Turning to KYFGTAKARYDFCARDRSELSLKEGDIIKILNKKGQQGWWRGEIYGRVGWFPANYQEEDYS [V56Q], the abundance fitness is -1 ± 0.3.

As to KYFGTAKARYDFCARDRSELSLKEGDIIKILNKKGQQGWWRGEIYGRVGWFPANYEEEDYS [V56E], the abundance fitness was -0.562 ± 0.21.

In the case of KYFGTAKARYDFCARDRSELSLKEGDIIKILNKKGQQGWWRGEIYGRVGWFPANYFEEDYS [V56F], the abundance fitness is -0.794 ± 0.2.

With KYFGTAKARYDFCARDRSELSLKEGDIIKILNKKGQQGWWRGEIYGRVGWFPANYGEEDYS [V56G], the abundance fitness is -0.545 ± 0.13.

For KYFGTAKARYDFCARDRSELSLKEGDIIKILNKKGQQGWWRGEIYGRVGWFPANYREEDYS [V56R], the abundance fitness is -1.03 ± 0.14.

Consider KYFGTAKARYDFCARDRSELSLKEGDIIKILNKKGQQGWWRGEIYGRVGWFPANYLEEDYS [V56L], for which the abundance fitness is -0.616 ± 0.08.

On to KYFGTAKARYDFCARDRSELSLKEGDIIKILNKKGQQGWWRGEIYGRVGWFPANYWEEDYS [V56W], for which the abundance fitness is -0.543 ± 0.091.

As for KYFGTAKARYDFCARDRSELSLKEGDIIKILNKKGQQGWWRGEIYGRVGWFPANYYEEDYS [V56Y], the abundance fitness was -0.325 ± 0.32.

As for KYFGTAKARYDFCARDRSELSLKEGDIIKILNKKGQQGWWRGEIYGRVGWFYANYVEEDYS [P52Y], the abundance fitness is -1.01 ± 0.34.

In the case of KYFGTAKARYDFCARDRSELSLKEGDIIKILNKKGQQGWWRGEIYGRVGWFWANYVEEDYS [P52W], the abundance fitness was -0.943 ± 0.18.

As to KYFGTAKARYDFCARDRSELSLKEGDIIKILNKKGQQGWWRGEIYGRVGWFSANYVEEDYS [P52S], the abundance fitness was -0.95 ± 0.15.

Take KYFGTAKARYDFCARDRSELSLKEGDIIKILNKKGQQGWWRGEIYGRVGWFVANYVEEDYS [P52V]: the abundance fitness was -0.787 ± 0.15.

Regarding KYFGTAKARYDFCARDRSELSLKEGDIIKILNKKGQQGWWRGEIYGRVGWFTANYVEEDYS [P52T], the abundance fitness was -0.778 ± 0.17.

Turning to KYFGTAKARYDFCARDRSELSLKEGDIIKILNKKGQQGWWRGEIYGRVGWFPINYVEEDYS [A53I], the abundance fitness was -0.314 ± 0.15.

Turning to KYFGTAKARYDFCARDRSELSLKEGDIIKILNKKGQQGWWRGEIYGRVGWFPTNYVEEDYS [A53T], the abundance fitness was -0.227 ± 0.08.

On to KYFGTAKARYDFCARDRSELSLKEGDIIKILNKKGQQGWWRGEIYGRVGWFPVNYVEEDYS [A53V], for which the abundance fitness is -0.301 ± 0.061.

For the variant KYFGTAKARYDFCARDRSELSLKEGDIIKILNKKGQQGWWRGEIYGRVGWFPMNYVEEDYS [A53M], the abundance fitness was -0.178 ± 0.11.

Take KYFGTAKARYDFCARDRSELSLKEGDIIKILNKKGQQGWWRGEIYGRVGWFPKNYVEEDYS [A53K]: the abundance fitness is -0.243 ± 0.1.

KYFGTAKARYDFCARDRSELSLKEGDIIKILNKKGQQGWWRGEIYGRVGWFPFNYVEEDYS [A53F]: the abundance fitness is -0.472 ± 0.13.

On to KYFGTAKARYDFCARDRSELSLKEGDIIKILNKKGQQGWWRGEIYGRVGWFPSNYVEEDYS [A53S], for which the abundance fitness was -0.082 ± 0.063.

Regarding KYFGTAKARYDFCARDRSELSLKEGDIIKILNKKGQQGWWRGEIYGRVGWFPYNYVEEDYS [A53Y], the abundance fitness was -0.341 ± 0.19.

Turning to KYFGTAKARYDFCARDRSELSLKEGDIIKILNKKGQQGWWRGEIYGRVGWFPLNYVEEDYS [A53L], the abundance fitness was -0.505 ± 0.064.

Turning to KYFGTAKARYDFCARDRSELSLKEGDIIKILNKKGQQGWWRGEIYGRVGWFPWNYVEEDYS [A53W], the abundance fitness is -0.451 ± 0.079.

Consider KYFGTAKARYDFCARDRSELSLKEGDIIKILNKKGQQGWWRGEIYGRVGWFPCNYVEEDYS [A53C], for which the abundance fitness is -0.078 ± 0.1.

Consider KYFGTAKARYDFCARDRSELSLKEGDIIKILNKKGQQGWWRGEIYGRVGWFPDNYVEEDYS [A53D], for which the abundance fitness was -0.641 ± 0.16.

As to KYFGTAKARYDFCARDRSELSLKEGDIIKILNKKGQQGWWRGEIYGRVGWFPQNYVEEDYS [A53Q], the abundance fitness was -0.243 ± 0.13.

For KYFGTAKARYDFCARDRSELSLKEGDIIKILNKKGQQGWWRGEIYGRVGWFPHNYVEEDYS [A53H], the abundance fitness is -0.011 ± 0.18.

Take KYFGTAKARYDFCARDRSELSLKEGDIIKILNKKGQQGWWRGEIYGRVGWFPGNYVEEDYS [A53G]: the abundance fitness was -0.4 ± 0.056.

For the variant KYFGTAKARYDFCARDRSELSLKEGDIIKILNKKGQQGWWRGEIYGRVGWFPNNYVEEDYS [A53N], the abundance fitness is -0.444 ± 0.14.

On to KYFGTAKARYDFCARDRSELSLKEGDIIKILNKKGQQGWWRGEIYGRVGWFPRNYVEEDYS [A53R], for which the abundance fitness was -0.151 ± 0.062.

In the case of KYFGTAKARYDFCARDRSELSLKEGDIIKILNKKGQQGWWRGEIYGRVGWFPPNYVEEDYS [A53P], the abundance fitness is -0.226 ± 0.096.

On to KYFGTAKARYDFCARDRSELSLKEGDIIKILNKKGQQGWWRGEIYGRVGWFPENYVEEDYS [A53E], for which the abundance fitness is -0.208 ± 0.099.
